Experimental findings from patent US20210371503A1 are described below.

Usually Kd stands for the concentration at which binding is half-saturated.

This experiment concerns the target prefusion stabilized SARS-CoV-2 S ectodomain (SARS-CoV-2) (UniProt P0DTC2). In words: assay not stated; row Binding Affinity Spike Trimer, construct not given.

The substance REGN10933 (antibody) gave a dissociation constant (Kd) of 3 nM.
